{"source": "patent US20090092640A1", "molecular_target": "mutant murine LIGHT (a.a. 79-82, EKLI, deleted), expressed on the cell surface (murine) (UniProt Q9QYH9)", "sequence (Q9QYH9 other isoform, or with tags, fused parts or gaps mutant limits assumed)": "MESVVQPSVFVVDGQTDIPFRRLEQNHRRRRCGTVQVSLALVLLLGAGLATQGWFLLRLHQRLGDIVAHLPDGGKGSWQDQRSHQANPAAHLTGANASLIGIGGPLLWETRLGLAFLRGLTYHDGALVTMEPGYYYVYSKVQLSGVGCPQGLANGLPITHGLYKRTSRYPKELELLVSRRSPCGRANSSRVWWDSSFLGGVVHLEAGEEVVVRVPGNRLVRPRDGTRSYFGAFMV", "assay": "cell-based or functional assay"}
{"substance": "LTβR-human Ig (Fc fusion)", "values": [{"measurement": "Incidence of tumor growth (Percentage), 10^6 Ag104L^d-LIGHT^m in C3B6F1 mice treated with LTβR-Ig", "value": "100 % (6/6 mice)"}]}
